In patent publication US20250009801A1:

Legend:
[1] = molecular target: human CLDN18.2 on cells (human) (UniProt P56856); assay: flow cytometry on CHO-GS-hCLDN18.2 cells
[2] = molecular target: human CLDN18.2 on cells (human) (UniProt P56856); assay: flow cytometry on DAN-G18.2 cells
[3] = molecular target: human CLDN18.2 on cells (human) (UniProt P56856); assay: flow cytometry on SUN601 (SNU601) cells

EC50 [1]: 8.21 nM
EC50 [2]: 6.95 nM
EC50 [3]: 261 nM
B1: Hz69H9-2.1 PG Ab (antibody, human IgG1, kappa, V domains shown)
VH: QVQLVQSGAEVKKPGSSVKVSCKASGYSFSSYNIHWVRQAPGQGLEWMGYIAPFQGDARYNQKFKGRVTITADKSTSTAYMELSSLRSEDTAVYYCARLNRGNALDYWGQGTLVTVSS
VL: DIVMTQSPDSLAVSLGERATINCKSSQSLFQSGNQRNYLTWYQQKPGQPPKLLIYWASTRESGVPDRFSGSGSGTDFTLTISSLQAEDVAVYYCQNNYIYPLTFGGGTKVEIKR
